Where a SMILES comes first, the peptide text is derived from it. The star is where a group is joined. HYNIC = NNc1ccc(C(=O)*)cn1
Key:
A549 xenograft tumors = experiment: Therapeutic evaluation of ^188Re-peptides on A549 tumors; format: in vivo, mice; details: 18.5 MBq i.v. at the first and seventh day
Experimental: Sixty mice were randomly separated into 6 groups once the tumor volumes reached approximately 0.1 cm^3: saline group, ^188ReO4 ^− group (18.5 MBq), non-labeled peptide group (4 μg per mouse) and ^188Re-labeled peptide group (18.5 MBq, 4 μg peptide per mouse) (n = 10). All drugs were administered i.v at the first and seventh day. Tumor size was determined weekly by measuring the length, width, and depth of the tumor using a caliper. Tumor volume was calculated as follows: tumor volume = (length × width × depth) × π/6. The mice were abandoned once dead or body weight loss was more than 20%.
At the end of the therapeutic period, mice were sacrificed, and the tumors were collected and fixed in 4% paraformaldehyde (PFA). Routine hematoxylin and eosin (H&E) staining and TdT-mediated dUTP nick-end labeling (TUNEL) staining were performed for necrosis and apoptosis analysis according to the manufacturer’s instructions.

[1] = tested on: A549 tumor-bearing nude mice; experiment: SPECT planar imaging; details: intravenous administration, 2 hour
Experimental: (§1) Five-week-old male BALB/c-nude mice were used for preparation of the xenograft tumor models. An A549 lung carcinoma-bearing model was established by subcutaneous injection of A549 cells at a concentration of 5 × 10^6 cells/mouse into the right front flank of the mice.
(§2) SPECT planar imaging was performed when the tumor volume was approximately 1 cm^3. The mice were anesthetized and placed in a supine position. Planar imaging was performed using a low-energy collimator at an energy peak of 140 keV at the indicated time after ^99mTc-labeled peptide (11.1 MBq, 150 μL) injection. The main imaging acquisition parameters were as follows: 128 × 128 matrix, window-width 20%, zoom 2.0, acquisition time 10 min. […] Then, 100,000 counts were acquired per image at each time indicated after the injection. For the blocking study, an excessive amount of HYNIC-peptide or EC-peptide (500 μg/mouse) was injected 30 min prior to radiolabeled peptide injection.

VEGFR-1 = VEGFR-1 (Homo sapiens, UniProt P17948); experiment: Co-immunoprecipitation of GST-peptide and VEGFR-1; format: binding; details: A549 cells, GST-peptide 80 or 185 nmol/L, 12 h, anti-GST or anti-VEGFR-1 antibody, Western blot
Chain of VEGFR-1 (P17948 27-656 limits assumed): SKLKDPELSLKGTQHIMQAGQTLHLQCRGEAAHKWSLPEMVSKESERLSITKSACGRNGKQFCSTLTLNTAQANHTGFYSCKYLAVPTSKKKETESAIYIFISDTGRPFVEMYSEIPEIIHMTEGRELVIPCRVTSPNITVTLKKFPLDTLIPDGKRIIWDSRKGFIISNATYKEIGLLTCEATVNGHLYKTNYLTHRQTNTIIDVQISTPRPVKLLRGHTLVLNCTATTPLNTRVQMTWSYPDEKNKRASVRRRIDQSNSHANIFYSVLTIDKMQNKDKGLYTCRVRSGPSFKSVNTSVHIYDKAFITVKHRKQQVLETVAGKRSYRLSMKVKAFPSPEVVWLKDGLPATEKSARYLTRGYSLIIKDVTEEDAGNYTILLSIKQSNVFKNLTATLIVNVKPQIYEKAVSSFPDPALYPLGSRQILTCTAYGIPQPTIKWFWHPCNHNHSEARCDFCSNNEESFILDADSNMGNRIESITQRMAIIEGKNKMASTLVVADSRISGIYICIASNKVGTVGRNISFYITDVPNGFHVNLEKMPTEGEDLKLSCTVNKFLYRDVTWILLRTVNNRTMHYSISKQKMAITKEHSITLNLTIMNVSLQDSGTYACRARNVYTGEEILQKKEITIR
Experimental: GST-peptide was prepared and purified as previously described. Briefly, pGEX4T-1-peptide plasmid was obtained by peptide gene insertion into pGEX4T-1. Then, the plasmids were transfected into E. coli BL21 (DE3)-competent cells. Subsequently, GST-peptide fusion proteins were collected and purified by Glutathione Sepharose 4B. The obtained proteins were identified by protein electrophoresis.
A549 cells were seeded in 75 cm^2 bottles (1 × 10^4 counts/mL). After 24 h, GST-QKRKRKKSRKKH (80 nmol/L) or GST–RKRKRKKSRYIVLS (185 nmol/L) protein was added, respectively. After 12 h, the culture medium was removed and the cells were washed by PBS and then spalled with IP lysis buffer containing protease inhibitor (4 °C, 30 min). The protein concentration was determined with BCA methods. Protein (600 μg) from supernatant was used for immunoprecipitation (IP) assays with 1 μg anti-GST antibody or 1 μg anti-VEGFR-1 antibody in a reversed Co-IP experiment, while IgG served as the negative group. After washing 3× by TBST, IgG-HRP was added, shaking 2 h at RT, and last for enhanced chemiluminescence imaging.

in vivo = details: male, BALB/c-nude, mouse, iv, 11.1 MBq, total radioactivity
Experimental: as §1, §2

VEGFR = VEGFR (UniProt P17948 27-1338); experiment: radioligand binding; receptor competition binding with 125I-VEGF165, peptide concentration varied; details in ref. 28
Chain of VEGFR (P17948 27-1338): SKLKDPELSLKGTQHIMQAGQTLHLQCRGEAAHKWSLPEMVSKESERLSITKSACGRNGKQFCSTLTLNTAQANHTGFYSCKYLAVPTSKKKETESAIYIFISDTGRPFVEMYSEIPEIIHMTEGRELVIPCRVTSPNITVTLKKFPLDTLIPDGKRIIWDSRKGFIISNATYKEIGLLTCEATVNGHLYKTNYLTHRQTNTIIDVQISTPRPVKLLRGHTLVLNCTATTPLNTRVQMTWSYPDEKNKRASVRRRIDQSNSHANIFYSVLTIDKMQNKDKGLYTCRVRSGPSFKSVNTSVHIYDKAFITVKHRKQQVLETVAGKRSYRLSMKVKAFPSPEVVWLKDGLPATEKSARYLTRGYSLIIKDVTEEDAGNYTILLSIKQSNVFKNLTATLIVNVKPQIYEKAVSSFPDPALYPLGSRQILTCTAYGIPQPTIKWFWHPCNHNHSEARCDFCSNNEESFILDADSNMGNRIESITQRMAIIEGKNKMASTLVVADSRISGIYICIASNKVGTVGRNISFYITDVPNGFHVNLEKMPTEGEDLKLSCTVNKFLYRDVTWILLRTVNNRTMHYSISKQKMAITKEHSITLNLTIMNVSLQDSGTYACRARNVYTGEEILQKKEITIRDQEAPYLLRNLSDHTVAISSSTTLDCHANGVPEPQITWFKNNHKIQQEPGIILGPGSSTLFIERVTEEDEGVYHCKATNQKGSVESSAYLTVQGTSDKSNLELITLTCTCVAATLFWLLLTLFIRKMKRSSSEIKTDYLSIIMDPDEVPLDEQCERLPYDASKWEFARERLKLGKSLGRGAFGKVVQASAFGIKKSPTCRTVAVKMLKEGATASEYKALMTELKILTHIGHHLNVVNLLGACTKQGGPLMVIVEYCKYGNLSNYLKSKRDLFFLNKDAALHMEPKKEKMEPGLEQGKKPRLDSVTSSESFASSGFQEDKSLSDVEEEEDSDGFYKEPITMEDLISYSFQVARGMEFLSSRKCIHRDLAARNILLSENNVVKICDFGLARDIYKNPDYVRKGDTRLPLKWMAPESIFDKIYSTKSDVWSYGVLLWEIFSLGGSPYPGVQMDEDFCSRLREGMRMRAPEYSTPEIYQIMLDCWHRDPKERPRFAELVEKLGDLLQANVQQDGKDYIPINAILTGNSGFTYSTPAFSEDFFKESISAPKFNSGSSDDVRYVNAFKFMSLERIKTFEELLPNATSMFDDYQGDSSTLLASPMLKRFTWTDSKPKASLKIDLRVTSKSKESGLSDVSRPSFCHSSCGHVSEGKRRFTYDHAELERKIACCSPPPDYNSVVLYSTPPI

**Q.** What does the source list for `[Na+].[O]=[188Re](=[O])(=[O])[O-]` [Na^188ReO4]?
**A.** A549 tumor volume growth (A549 xenograft tumors; compared with the saline group, n = 10): inhibited the tumor volume growth; apoptosis in non-necrotic tumor areas (TUNEL staining) (A549 xenograft tumors; end of the therapeutic period): no significant difference in necrosis or apoptosis; necrotic regions in tumor tissue (HE staining) (A549 xenograft tumors; end of the therapeutic period): no significant difference in necrosis or apoptosis; survival of A549 tumor-bearing nude mice (A549 xenograft tumors; n = 10): did not improve the survival duration; distribution of radioactivity on SPECT planar imaging [1]: Large amount of radioactivity was observed in thyroids and stomach

**Q.** With “GST-RKRKRKKSRYIVLS [GST-peptide fusion protein from E. coli BL21 (DE3)]” as the molecule, how does the “binding to VEGFR-1 by Co-IP and reversed Co-IP” value (VEGFR-1) read?
**A.** could combined to VEGFR-1

**Q.** What does the source list for `N=C(N)NCCC[C@H](NC(=O)[C@H](CCCCN)NC(=O)[C@H](CCC(N)=O)NC(=O)c1ccc(NN)nc1)C(=O)N[C@@H](CCCCN)C(=O)N[C@@H](CCCNC(=N)N)C(=O)N[C@@H](CCCCN)C(=O)N[C@@H](CCCCN)C(=O)N[C@@H](CO)C(=O)N[C@@H](CCCNC(=N)N)C(=O)N[C@@H](CCCCN)C(=O)N[C@@H](CCCCN)C(=O)N[C@@H](Cc1c[nH]cn1)C(=O)O` (99mTc complex, metal not drawn) [^99mTc-HYNIC-QKRKRKKSRKKH] ({HYNIC}-QKRKRKKSRKKH-OH)?
**A.** tissue to tissue ratio at 0.5 h (in vivo): 1.53; tissue to tissue ratio at 1 h (in vivo): 3.42; tissue to tissue ratio at 2 h (in vivo): 4.31; tissue to tissue ratio at 4 h (in vivo): 2.62

**Q.** For `CC[C@H](C)[C@H](NC(=O)[C@H](Cc1ccc(O)cc1)NC(=O)[C@H](CCCNC(=N)N)NC(=O)[C@H](CO)NC(=O)[C@H](CCCCN)NC(=O)[C@H](CCCCN)NC(=O)[C@H](CCCNC(=N)N)NC(=O)[C@H](CCCCN)NC(=O)[C@H](CCCNC(=N)N)NC(=O)[C@H](CCCCN)NC(=O)[C@H](CCCNC(=N)N)NC(=O)c1ccc(NN)nc1)C(=O)N[C@H](C(=O)N[C@@H](CC(C)C)C(=O)N[C@@H](CO)C(=O)O)C(C)C` (99mTc complex, metal not drawn) [^99mTc-HYNIC-RKRKRKKSRYIVLS] ({HYNIC}-RKRKRKKSRYIVLS-OH), which tissue to tissue ratio at 0.5 h (in vivo) is on record?
**A.** 4.05

**Q.** What about the tissue to tissue ratio at 1 h (in vivo) of the same molecule?
**A.** 4.02

**Q.** What about the tissue to tissue ratio at 2 h (in vivo) of the same molecule?
**A.** 3.76

**Q.** And the tissue to tissue ratio at 4 h (in vivo)?
**A.** 2.86

**Q.** Which “binding to VEGFR-1 by Co-IP and reversed Co-IP” value (VEGFR-1) does the source give for “GST-QKRKRKKSRKKH [GST-peptide fusion protein from E. coli BL21 (DE3)]” here?
**A.** could bind to VEGFR-1

B1: QKRKRKKSRKKH (peptide)
peptide: QKRKRKKSRKKH
notes: core motif RKRKKSR kept; also called non-labeled peptide; source: synthetic peptide (ChinaPeptides Co., Ltd., SPPS, HPLC purified)
**Q.** For B1, which IC50 (VEGFR) is on record?
**A.** 79.8 nM

B2: RKRKRKKSRYIVLS (peptide)
peptide: RKRKRKKSRYIVLS
notes: as for B1
**Q.** With B2 as the molecule, how does the IC50 (VEGFR) read?
**A.** 185 nM

B3: VEGF_(125-136) (peptide)
peptide: QKRKRKKSRYKS
notes: source: synthetic peptide (ChinaPeptides Co., Ltd., SPPS, HPLC purified)
**Q.** Which IC50 (VEGFR) does the source give for B3 here?
**A.** 464 nM

Reference: publication PMC5487319 (Scientific Reports, 2017)
